The assay concerns the target CRL4A-CRBN (Homo sapiens, UniProt Q96SW2). Put plainly: TR-FRET. (TR-FRET usually uses a lanthanide donor and a delayed reading to cut background.)

Chain of CRL4A-CRBN (Q96SW2 whole entry, chain 1 of 4): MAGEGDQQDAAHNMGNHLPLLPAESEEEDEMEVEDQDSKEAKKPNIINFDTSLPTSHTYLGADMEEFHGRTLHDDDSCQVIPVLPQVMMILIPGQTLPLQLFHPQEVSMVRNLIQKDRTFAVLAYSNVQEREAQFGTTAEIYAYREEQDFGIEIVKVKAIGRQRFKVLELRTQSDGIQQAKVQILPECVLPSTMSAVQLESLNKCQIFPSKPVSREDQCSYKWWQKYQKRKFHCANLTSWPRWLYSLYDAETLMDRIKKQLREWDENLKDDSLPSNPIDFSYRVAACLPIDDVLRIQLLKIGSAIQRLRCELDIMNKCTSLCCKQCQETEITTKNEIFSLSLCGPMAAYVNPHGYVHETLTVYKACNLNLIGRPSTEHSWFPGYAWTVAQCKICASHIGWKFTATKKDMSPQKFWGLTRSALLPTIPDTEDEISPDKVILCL
Chain of CRL4A-CRBN (Q16531 2-1140, chain 2 of 4, further chain): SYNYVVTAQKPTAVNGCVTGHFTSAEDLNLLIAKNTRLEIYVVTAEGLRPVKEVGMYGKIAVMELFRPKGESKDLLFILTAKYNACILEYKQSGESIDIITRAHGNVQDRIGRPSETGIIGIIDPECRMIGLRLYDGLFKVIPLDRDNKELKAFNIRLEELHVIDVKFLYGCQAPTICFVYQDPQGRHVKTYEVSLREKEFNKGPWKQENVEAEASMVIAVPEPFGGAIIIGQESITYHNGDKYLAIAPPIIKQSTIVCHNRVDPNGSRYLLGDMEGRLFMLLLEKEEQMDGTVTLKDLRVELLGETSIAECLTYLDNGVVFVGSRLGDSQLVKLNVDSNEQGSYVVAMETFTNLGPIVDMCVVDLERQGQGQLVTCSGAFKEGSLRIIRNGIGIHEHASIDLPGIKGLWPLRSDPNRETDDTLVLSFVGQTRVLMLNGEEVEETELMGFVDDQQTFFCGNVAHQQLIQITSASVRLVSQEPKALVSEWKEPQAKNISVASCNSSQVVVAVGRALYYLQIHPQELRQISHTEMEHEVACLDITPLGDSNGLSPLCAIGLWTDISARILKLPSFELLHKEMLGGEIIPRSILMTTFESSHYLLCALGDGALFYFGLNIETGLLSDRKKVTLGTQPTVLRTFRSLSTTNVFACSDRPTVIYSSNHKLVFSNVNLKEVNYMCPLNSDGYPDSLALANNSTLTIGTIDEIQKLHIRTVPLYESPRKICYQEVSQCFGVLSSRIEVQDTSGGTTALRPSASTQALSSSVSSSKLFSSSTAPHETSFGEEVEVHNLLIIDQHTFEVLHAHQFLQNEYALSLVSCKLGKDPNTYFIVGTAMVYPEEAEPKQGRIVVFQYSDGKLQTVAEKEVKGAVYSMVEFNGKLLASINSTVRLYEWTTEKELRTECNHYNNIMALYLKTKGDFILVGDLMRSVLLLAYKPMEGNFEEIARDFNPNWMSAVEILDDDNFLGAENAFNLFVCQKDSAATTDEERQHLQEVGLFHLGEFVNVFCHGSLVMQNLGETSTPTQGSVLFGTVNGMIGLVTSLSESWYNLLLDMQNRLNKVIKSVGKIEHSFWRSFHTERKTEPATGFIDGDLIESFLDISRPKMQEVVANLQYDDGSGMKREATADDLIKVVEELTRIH
Chain of CRL4A-CRBN (Q13619 whole entry, chain 3 of 4, further chain): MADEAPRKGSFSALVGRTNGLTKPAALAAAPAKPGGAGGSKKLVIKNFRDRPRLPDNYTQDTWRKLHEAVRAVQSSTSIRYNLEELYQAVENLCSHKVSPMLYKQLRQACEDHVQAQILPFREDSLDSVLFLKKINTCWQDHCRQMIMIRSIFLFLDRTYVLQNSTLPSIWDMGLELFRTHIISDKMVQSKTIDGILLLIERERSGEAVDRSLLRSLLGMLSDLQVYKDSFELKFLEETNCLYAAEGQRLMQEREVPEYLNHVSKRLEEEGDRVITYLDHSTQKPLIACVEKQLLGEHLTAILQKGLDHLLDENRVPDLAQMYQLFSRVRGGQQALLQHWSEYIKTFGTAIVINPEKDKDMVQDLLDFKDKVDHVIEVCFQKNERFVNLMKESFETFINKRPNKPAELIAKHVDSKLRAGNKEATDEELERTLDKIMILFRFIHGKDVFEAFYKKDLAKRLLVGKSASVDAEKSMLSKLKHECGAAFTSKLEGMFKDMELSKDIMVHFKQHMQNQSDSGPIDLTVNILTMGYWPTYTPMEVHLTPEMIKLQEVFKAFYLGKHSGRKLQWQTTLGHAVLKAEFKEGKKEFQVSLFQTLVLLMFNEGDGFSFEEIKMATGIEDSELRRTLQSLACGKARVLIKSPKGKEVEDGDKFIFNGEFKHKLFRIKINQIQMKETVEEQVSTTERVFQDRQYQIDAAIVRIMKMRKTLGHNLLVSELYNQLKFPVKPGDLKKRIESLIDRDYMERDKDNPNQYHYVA
Chain of CRL4A-CRBN (P62877 2-108, chain 4 of 4, further chain): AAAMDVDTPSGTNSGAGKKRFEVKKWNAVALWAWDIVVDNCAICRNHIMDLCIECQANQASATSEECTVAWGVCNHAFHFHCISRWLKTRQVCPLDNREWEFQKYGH

B1: ZFP91 (protein)
chain: PGETEEPRPPEQQDQEGGEAAKAAPEEPQQRPPEAVAAAPAGTTSSRVLRGGRDRGRAAAAAAAAAVSRRRKAEYPRRRRSSPSARPPDVPGQQPQAAKSPSPVQGKKSPRLLCIEKVTTDKDPKEEKEEEDDSALPQEVSIAASRPSRGWRSSRTSVSRHRDTENTRSSRSKTGSLQLICKSEPNTDQLDYDVGEEHQSPGGISSEEEEEEEEEMLISEEEIPFKDDPRDETYKPHLERETPKPRRKSGKVKEEKEKKEIKVEVEVEVKEEENEIREDEEPPRKRGRRRKDDKSPRLPKRRKKPPIQYVRCEMEGCGTVLAHPRYLQHHIKYQHLLKKKYVCPHPSCGRLFRLQKQLLRHAKHHTDQRDYICEYCARAFKSSHNLAVHRMIHTGEKPLQCEICGFTCRQKASLNWHMKKHDADSFYQFSCNICGKKFEKKDSVVAHKAKSHPEVLIAEALAANAGALITSTDILGTNPESLTQPSDGQGLPLLPEPLGNSTSGECLLLEAEGMSKSYCSGTERVSLMADGKIFVGSGSSGGTEGLVMNSDILGATTEVLIEDSDSAGP
modifications: lenalidomide
As to B1, the equilibrium dissociation constant (Kd) – broadly, the equilibrium constant for the complex coming apart – was 107 nM. This lies in the sub-micromolar range.

Source of the values: PMC5458144 (2017).
